In paper PMC8477557 (2021):

Molecular target: αCD123
Assay: SPR

Kd: 1.2 nM
B1: CD123 extracellular domain (domain or fragment)
chain: TKEDPNPPITNLRMKAKAQQLTWDLNRNVTDIECVKDADYSMPAVNNSYCQFGAISLCEVTNYTVRVANPPFSTWILFPENSGKPWAGAENLTCWIHDVDFLSCSWAVGPGAPADVQYDLYLNVANRRQQYECLHYKTDAQGTRIGCRFDDISRLSSGSQSSHILVRGRSAAFGIPCTDKFVVFSQIEILTPPNMTAKCNKTHSFMHWKMRSHFNRKFRYELQIQKRMQPVITEQVRDRTSFQLLNPGTYTVQIRARERVYEFLSAWSTPQRFECDQEEGANTRAWR
